In US20120094935A1:

Tests used:
[1] = target: N-terminally His-tagged form of human TNFα (residues 6-157, numbered as in PDB entry 1TNF), soluble TNFα trimer (human) (UniProt P01375); experiment: crystal structure, AREAIMOL with 1.4 Å probe
[2] = target: N-terminally His-tagged form of human TNFα (residues 6-157, numbered as in PDB entry 1TNF), soluble TNFα trimer (human) (UniProt P01375); experiment: crystal structure, SC program in CCP4

Sequence of UniProt P01375 (P01375 other isoform, or with tags, fused parts or gaps limits assumed): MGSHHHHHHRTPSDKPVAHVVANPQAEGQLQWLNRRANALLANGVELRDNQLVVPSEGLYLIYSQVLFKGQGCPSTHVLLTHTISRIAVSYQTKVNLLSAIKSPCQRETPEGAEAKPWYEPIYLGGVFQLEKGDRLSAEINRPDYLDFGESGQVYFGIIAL

## C-terminally His-tagged version of Yaba-like disease virus (YLDV) 2L lacking six C-terminal residues
[1]
  buried surface area contributed by 2L: 1030 Å^2
  total buried surface area at the 2L-TNFα interface: 2060 Å^2
[2]
  shape complementarity index SC: 0.72
